Measured values taken from the Immune Epitope Database (IEDB).
One block for each sequence: values may come before it.

What was measured:
[1] = biological target: HLA-A*02:01; experiment: IEDB peptide-MHC binding, purified MHC/competitive/fluorescence; filed as Kd, often an IC50 or EC50 that approximates it; ≥ and ≤ were set here for values at or beyond the usual limits of such assays; conditions: source organism: Burkholderia vietnamiensis G4
[2] = biological target: HLA-A*02:03; experiment: as above; conditions: source organism: Burkholderia vietnamiensis G4
[3] = biological target: HLA-A*02:11; experiment: as above; conditions: source organism: Burkholderia vietnamiensis G4
[4] = biological target: HLA-A*02:12; experiment: as above; conditions: source organism: Burkholderia vietnamiensis G4
[5] = biological target: HLA-A*02:16; experiment: as above; conditions: source organism: Burkholderia vietnamiensis G4
[6] = biological target: HLA-A*02:19; experiment: as above; conditions: source organism: Burkholderia vietnamiensis G4
[7] = biological target: HLA-A*03:01; experiment: as above; conditions: source organism: Burkholderia vietnamiensis G4
[8] = biological target: HLA-A*23:01; experiment: as above; conditions: source organism: Burkholderia vietnamiensis G4
[9] = biological target: HLA-A*24:03; experiment: as above; conditions: source organism: Burkholderia vietnamiensis G4
[10] = biological target: HLA-A*26:01; experiment: as above; conditions: source organism: Burkholderia vietnamiensis G4
[11] = biological target: HLA-A*29:02; experiment: as above; conditions: source organism: Burkholderia vietnamiensis G4
[12] = biological target: HLA-B*15:01; experiment: as above; conditions: source organism: Burkholderia vietnamiensis G4
[13] = biological target: HLA-B*18:01; experiment: as above; conditions: source organism: Burkholderia vietnamiensis G4
[14] = biological target: HLA-B*27:03; experiment: as above; conditions: source organism: Burkholderia vietnamiensis G4
[15] = biological target: HLA-B*39:01; experiment: as above; conditions: source organism: Burkholderia vietnamiensis G4
[16] = biological target: HLA-B*46:01; experiment: as above; conditions: source organism: Burkholderia vietnamiensis G4
[17] = biological target: HLA-B*51:01; experiment: as above; conditions: source organism: Burkholderia vietnamiensis G4
[18] = biological target: HLA-B*57:01; experiment: as above; conditions: source organism: Burkholderia vietnamiensis G4
[19] = biological target: HLA-A*01:01; experiment: IEDB peptide-MHC binding, purified MHC/direct/fluorescence; filed as Kd, often an IC50 or EC50 that approximates it; ≥ and ≤ were set here for values at or beyond the usual limits of such assays; conditions: source organism: Klebsiella pneumoniae
[20] = biological target: HLA-A*02:01; experiment: as above; conditions: source organism: Klebsiella pneumoniae
[21] = biological target: HLA-A*03:01; experiment: as above; conditions: source organism: Klebsiella pneumoniae
[22] = biological target: HLA-A*11:01; experiment: as above; conditions: source organism: Klebsiella pneumoniae
[23] = biological target: HLA-A*24:03; experiment: as above; conditions: source organism: Klebsiella pneumoniae
[24] = biological target: HLA-A*26:01; experiment: as above; conditions: source organism: Klebsiella pneumoniae
[25] = biological target: HLA-A*31:01; experiment: as above; conditions: source organism: Klebsiella pneumoniae
[26] = biological target: HLA-A*69:01; experiment: as above; conditions: source organism: Klebsiella pneumoniae
[27] = biological target: HLA-B*07:02; experiment: as above; conditions: source organism: Klebsiella pneumoniae
[28] = biological target: HLA-B*08:01; experiment: as above; conditions: source organism: Klebsiella pneumoniae
[29] = biological target: HLA-B*15:01; experiment: as above; conditions: source organism: Klebsiella pneumoniae
[30] = biological target: HLA-B*27:05; experiment: as above; conditions: source organism: Klebsiella pneumoniae
[31] = biological target: HLA-B*40:01; experiment: as above; conditions: source organism: Klebsiella pneumoniae
[32] = biological target: HLA-B*58:01; experiment: as above; conditions: source organism: Klebsiella pneumoniae
[33] = biological target: HLA-A*02:50; experiment: IEDB peptide-MHC binding, purified MHC/competitive/fluorescence; filed as Kd, often an IC50 or EC50 that approximates it; ≥ and ≤ were set here for values at or beyond the usual limits of such assays; conditions: source organism: Klebsiella pneumoniae

Sequence: GVNDTEAHA
- Kd [1]: ≥ 20 µM
- Kd [2]: ≥ 20 µM
- Kd [3]: ≥ 20 µM
- Kd [4]: ≥ 20 µM
- Kd [5]: 0.365 µM
- Kd [6]: ≥ 20 µM
- Kd [7]: ≥ 20 µM
- Kd [8]: ≥ 20 µM
- Kd [9]: ≥ 20 µM
- Kd [10]: ≥ 20 µM
- Kd [11]: ≥ 20 µM
- Kd [12]: ≥ 20 µM
- Kd [13]: ≥ 20 µM
- Kd [14]: ≥ 20 µM
- Kd [15]: ≥ 20 µM
- Kd [16]: ≥ 20 µM
- Kd [17]: ≥ 20 µM
- Kd [18]: ≥ 20 µM

- Kd [19]: ≥ 20 µM
- Kd [20]: 1.18 µM
- Kd [21]: ≥ 20 µM
- Kd [22]: ≥ 20 µM
- Kd [23]: ≥ 20 µM
- Kd [24]: ≥ 20 µM
- Kd [25]: ≥ 20 µM
- Kd [26]: ≥ 20 µM
- Kd [27]: ≥ 20 µM
- Kd [28]: 7.89 µM
- Kd [29]: ≥ 20 µM
- Kd [30]: ≥ 20 µM
- Kd [31]: ≥ 20 µM
- Kd [32]: ≥ 20 µM
- Kd [33]: 0.0177 µM
Sequence: LLQEKYGLI
